Results taken from IntAct's records for PubMed 22193721.

B1: Beta-adrenergic receptor kinase 1 (Bos taurus (Bovine)), P21146 (parent)
chain: MADLEAVLADVSYLMAMEKSKATPAARASKKILLPEPSIRSVMQKYLEDRGEVTFEKIFSQKLGYLLFRDFCLKHLEEAKPLVEFYEEIKKYEKLETEEERLVCSREIFDTYIMKELLACSHPFSKSAIEHVQGHLVKKQVPPDLFQPYIEEICQNLRGDVFQKFIESDKFTRFCQWKNVELNIHLTMNDFSVHRIIGRGGFGEVYGCRKADTGKMYAMKCLDKKRIKMKQGETLALNERIMLSLVSTGDCPFIVCMSYAFHTPDKLSFILDLMNGGDLHYHLSQHGVFSEADMRFYAAEIILGLEHMHNRFVVYRDLKPANILLDEHGHVRISDLGLACDFSKKKPHASVGTHGYMAPEVLQKGVAYDSSADWFSLGCMLFKLLRGHSPFRQHKTKDKHEIDRMTLTMAVELPDSFSPELRSLLEGLLQRDVNRRLGCLGRGAQEVKESPFFRSLDWQMVFLQKYPPPLIPPRGEVNAADAFDIGSFDEEDTKGIKLLDSDQELYRNFPLTISERWQQEVAETVFDTINAETDRLEARKKTKNKQLGHEEDYALGKDCIMHGYMSKMGNPFLTQWQRRYFYLFPNRLEWRGEGEAPQSLLTMEEIQSVEETQIKERKCLLLKIRGGKQFVLQCDSDPELVQWKKELRDAYREAQQLVQRVPKMKNKPRSPVVELSKVPLIQRGSANGL
B2: Beta-adrenergic receptor kinase 1 (Bos taurus (Bovine)), P21146 (parent)
chain: B1 chain
partner: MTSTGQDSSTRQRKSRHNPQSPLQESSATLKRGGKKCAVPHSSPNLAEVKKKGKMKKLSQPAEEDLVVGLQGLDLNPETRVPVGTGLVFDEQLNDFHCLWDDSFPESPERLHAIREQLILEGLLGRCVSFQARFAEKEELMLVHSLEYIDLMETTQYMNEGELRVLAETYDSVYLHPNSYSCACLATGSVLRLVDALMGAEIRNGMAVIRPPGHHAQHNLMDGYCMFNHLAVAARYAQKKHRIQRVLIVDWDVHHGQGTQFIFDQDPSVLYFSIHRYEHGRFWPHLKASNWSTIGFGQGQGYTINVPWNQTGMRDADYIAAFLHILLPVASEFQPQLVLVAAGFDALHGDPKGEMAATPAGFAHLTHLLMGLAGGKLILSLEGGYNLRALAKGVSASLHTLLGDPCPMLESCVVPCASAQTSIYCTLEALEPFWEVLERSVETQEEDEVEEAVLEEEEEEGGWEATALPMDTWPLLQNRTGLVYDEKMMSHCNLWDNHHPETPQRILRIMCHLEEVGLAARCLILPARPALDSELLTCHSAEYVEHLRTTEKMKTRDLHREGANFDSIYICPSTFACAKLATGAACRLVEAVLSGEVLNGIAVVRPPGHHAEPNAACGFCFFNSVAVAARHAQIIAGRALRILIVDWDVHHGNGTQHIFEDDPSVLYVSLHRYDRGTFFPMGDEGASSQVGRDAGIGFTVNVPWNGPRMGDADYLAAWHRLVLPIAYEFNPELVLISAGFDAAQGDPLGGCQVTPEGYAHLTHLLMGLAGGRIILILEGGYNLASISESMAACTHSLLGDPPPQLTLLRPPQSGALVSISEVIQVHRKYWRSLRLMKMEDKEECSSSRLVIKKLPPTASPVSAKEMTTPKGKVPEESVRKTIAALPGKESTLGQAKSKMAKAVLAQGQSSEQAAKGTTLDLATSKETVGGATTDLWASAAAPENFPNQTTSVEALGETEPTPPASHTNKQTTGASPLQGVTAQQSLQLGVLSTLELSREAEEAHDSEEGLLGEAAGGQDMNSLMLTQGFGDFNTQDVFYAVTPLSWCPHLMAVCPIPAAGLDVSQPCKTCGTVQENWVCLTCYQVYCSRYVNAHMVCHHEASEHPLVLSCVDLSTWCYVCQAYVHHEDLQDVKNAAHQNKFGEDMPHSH

Variants of: B1
Conditions: with hdac6_human HDAC6, Q9UBN7
Sequence of hdac6_human HDAC6, Q9UBN7 (Q9UBN7 whole entry): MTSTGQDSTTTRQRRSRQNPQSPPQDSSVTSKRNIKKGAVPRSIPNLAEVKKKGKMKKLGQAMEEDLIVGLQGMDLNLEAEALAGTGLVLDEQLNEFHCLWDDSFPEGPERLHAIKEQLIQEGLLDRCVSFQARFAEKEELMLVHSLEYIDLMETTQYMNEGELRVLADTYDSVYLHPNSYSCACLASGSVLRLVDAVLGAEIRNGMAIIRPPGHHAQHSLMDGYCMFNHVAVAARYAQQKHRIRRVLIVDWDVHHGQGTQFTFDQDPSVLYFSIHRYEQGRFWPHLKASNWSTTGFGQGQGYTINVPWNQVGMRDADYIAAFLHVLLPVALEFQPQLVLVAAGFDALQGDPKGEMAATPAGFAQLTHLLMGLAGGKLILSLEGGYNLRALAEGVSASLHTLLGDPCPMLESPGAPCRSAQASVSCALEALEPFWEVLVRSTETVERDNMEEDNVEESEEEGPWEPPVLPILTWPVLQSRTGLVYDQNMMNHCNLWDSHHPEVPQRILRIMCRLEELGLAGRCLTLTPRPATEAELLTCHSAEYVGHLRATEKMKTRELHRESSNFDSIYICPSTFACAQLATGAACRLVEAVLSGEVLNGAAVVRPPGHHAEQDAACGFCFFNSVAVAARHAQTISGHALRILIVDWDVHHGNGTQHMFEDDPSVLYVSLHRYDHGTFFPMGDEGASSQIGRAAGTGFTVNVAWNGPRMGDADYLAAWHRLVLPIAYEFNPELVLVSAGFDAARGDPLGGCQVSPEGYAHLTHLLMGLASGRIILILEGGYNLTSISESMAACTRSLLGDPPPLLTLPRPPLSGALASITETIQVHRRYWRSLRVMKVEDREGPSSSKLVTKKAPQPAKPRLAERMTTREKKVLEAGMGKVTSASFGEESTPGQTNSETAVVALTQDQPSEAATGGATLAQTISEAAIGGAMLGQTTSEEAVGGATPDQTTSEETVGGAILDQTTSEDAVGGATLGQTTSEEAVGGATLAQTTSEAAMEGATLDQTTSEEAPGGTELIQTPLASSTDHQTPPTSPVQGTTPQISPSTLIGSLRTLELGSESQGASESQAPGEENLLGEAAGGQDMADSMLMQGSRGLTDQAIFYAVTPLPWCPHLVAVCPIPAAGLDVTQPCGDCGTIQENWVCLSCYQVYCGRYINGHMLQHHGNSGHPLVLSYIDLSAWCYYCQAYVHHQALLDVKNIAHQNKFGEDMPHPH

effect of a mutation on the interaction | Variant
disrupting interaction | K220R

Variants of: B1
Conditions: with hdac6_human HDAC6, Q9UBN7
Remark: another data set of the same source

effect of a mutation on the interaction | Variant
decreasing interaction | S670A

Variants of: B2
Conditions: with hdac6_mouse Hdac6, Q9Z2V5

effect of a mutation on the interaction | Variant
increasing interaction | K220R
